Source: publication PMC5764413 (PLoS Neglected Tropical Diseases, 2017)

B1: RVFV MP12 N protein delN1-14, N-terminal 6His-tag (p14-N) (domain or fragment)
chain: AVDRNEIEQWVREFAYQGFDARRVIELLKQYGGADWEKDAKKMIVLALTRGNKPRRMMMKMSKEGKATVEALINKYKLKEGNPSRDELTLSRVAAALAGWTCQALVVLSEWLPVTGTTMDGLSPAYPRHMMHPSFAGMVDPSLPGDYLRAILDAHSLYLLQFSRVINPNLRGRTKEEVAATFTQPMNAAVNSNFISHEKRREFLKAFGLVDSNGKPSAAVMAAAQAYKTAA
B2: RVFV MP12 nucleocapsid protein (N), wild type, N-terminal 6His-tag (p14-N) (natural protein)
chain: MDNYQELRVQFAAQAVDRNEIEQWVREFAYQGFDARRVIELLKQYGGADWEKDAKKMIVLALTRGNKPRRMMMKMSKEGKATVEALINKYKLKEGNPSRDELTLSRVAAALAGWTCQALVVLSEWLPVTGTTMDGLSPAYPRHMMHPSFAGMVDPSLPGDYLRAILDAHSLYLLQFSRVINPNLRGRTKEEVAATFTQPMNAAVNSNFISHEKRREFLKAFGLVDSNGKPSAAVMAAAQAYKTAA

Target: the molecule itself
Experiment: cross-linking

Row | Protein | binding result
1 | B1 | binds
2 | B2 | binds
